In patent publication US20100166747A1 one finds Max (%) maximum level of inhibition data, which are given here for 2 substances.

For experiment [1], the target named is hu IGF-1R(ECD)-C3-muIgG1Fc (human; mouse). The experiment is described as follows: ORIGEN competition on IGF-1R(ECD)-C3-muFc beads; competitor 1 nM Ru-IGF-1.
Experiment [2] shares this target. The experiment in a line: ORIGEN competition on IGF-1R(ECD)-C3-muFc beads; competitor 2 nM Ru-IGF-2.

Take “murine anti-IGF-1R antibody αIR3 (Calbiochem)”: the Max (%) maximum level of inhibition at 1 µM antibody in experiment [1] turned out to be 91%.
Regarding “murine anti-IGF-1R antibody 1H7 (Santa Cruz Biotechnology)”, the Max (%) maximum level of inhibition at 1 µM antibody in experiment [1] stood at 89%; in experiment [2] it was 99%.
